From PMC8311663 (Molecular cell, 2021) come the findings set out here.

T1: Mycobacterium tuberculosis RNA polymerase β subunit (M. tuberculosis, UniProt P9WGY9 1-1178)
T1 sequence: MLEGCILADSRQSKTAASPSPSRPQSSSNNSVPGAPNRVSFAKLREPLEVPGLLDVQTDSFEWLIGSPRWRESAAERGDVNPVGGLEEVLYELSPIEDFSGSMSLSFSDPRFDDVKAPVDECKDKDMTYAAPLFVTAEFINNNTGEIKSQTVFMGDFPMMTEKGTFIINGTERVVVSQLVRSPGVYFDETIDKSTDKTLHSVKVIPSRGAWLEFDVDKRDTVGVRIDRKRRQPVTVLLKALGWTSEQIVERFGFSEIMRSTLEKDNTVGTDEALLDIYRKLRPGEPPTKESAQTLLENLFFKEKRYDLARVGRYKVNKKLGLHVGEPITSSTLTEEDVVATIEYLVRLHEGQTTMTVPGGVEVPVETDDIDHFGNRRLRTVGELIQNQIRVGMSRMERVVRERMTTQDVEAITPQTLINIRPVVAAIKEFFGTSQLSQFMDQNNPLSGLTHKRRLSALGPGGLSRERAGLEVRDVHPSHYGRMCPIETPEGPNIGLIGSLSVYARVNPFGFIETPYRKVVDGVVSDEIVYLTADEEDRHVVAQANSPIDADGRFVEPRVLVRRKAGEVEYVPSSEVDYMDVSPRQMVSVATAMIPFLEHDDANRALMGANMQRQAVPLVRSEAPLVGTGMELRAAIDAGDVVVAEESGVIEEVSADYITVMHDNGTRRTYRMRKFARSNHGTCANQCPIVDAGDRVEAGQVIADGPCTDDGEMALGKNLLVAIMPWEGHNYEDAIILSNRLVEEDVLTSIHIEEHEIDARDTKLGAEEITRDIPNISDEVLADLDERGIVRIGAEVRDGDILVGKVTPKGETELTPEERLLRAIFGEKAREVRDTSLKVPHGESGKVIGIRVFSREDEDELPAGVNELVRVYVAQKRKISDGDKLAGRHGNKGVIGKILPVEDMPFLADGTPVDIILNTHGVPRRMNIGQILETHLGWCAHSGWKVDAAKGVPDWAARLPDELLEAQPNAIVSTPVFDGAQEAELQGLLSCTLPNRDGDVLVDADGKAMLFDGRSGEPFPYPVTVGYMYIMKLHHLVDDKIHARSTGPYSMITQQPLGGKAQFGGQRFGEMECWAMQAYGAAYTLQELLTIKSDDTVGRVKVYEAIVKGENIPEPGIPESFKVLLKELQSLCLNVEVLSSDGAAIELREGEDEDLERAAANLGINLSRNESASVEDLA

T2: Mycobacterium tuberculosis σ^A (co-expressed with RbpA) (M. tuberculosis, UniProt P9WGI1)
T2 sequence: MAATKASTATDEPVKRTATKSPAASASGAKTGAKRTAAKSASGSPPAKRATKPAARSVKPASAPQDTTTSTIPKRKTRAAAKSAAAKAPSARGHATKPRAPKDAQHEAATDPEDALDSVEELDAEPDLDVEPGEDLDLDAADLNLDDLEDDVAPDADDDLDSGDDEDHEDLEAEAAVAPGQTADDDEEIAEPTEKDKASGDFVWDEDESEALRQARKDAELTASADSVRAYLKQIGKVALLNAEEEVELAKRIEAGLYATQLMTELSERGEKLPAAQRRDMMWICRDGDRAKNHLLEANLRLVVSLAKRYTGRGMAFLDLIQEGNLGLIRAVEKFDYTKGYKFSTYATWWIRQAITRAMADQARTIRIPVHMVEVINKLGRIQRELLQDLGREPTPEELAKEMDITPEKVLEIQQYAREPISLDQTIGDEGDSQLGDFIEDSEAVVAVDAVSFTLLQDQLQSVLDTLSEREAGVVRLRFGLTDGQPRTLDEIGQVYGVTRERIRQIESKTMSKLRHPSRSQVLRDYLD

B1: Mycobacterium tuberculosis CarD (natural protein)
chain: MIFKVGDTVVYPHHGAALVEAIETRTIKGEQKEYLVLKVAQGDLTVRVPAENAEYVGVRDVVGQEGLDKVFQVLRAPHTEEPTNWSRRYKANLEKLASGDVNKVAEVVRDLWRRDQERGLSAGEKRMLAKARQILVGELALAESTDDAKAETILDEVLAAAS
B2: Mycobacterium tuberculosis RbpA (co-expressed with σ^A) (natural protein)
chain: MADRVLRGSRLGAVSYETDRNHDLAPRQIARYRTDNGEEFEVPFADDAEIPGTWLCRNGMEGTLIEGDLPEPKKVKPPRTHWDMLLERRSIEELEELLKERLELIRSRRRG
B3: Mycobacterium tuberculosis RbpA (expressed alone from pET20b) (natural protein)
chain: B2 chain
B4: Mycobacterium tuberculosis WhiB7 (6His-WhiB7) (natural protein)
chain: MSVLTVPRQTPRQRLPVLPCHVGDPDLWFADTPAGLEVAKTLCVSCPIRRQCLAAALQRAEPWGVWGGEIFDQGSIVSHKRPRGRPRKDAVA
B5: Mycobacterium tuberculosis σ^A (Strep-tag II-σ^A, co-expressed with WhiB7) (natural protein)
chain: AATKASTATDEPVKRTATKSPAASASGAKTGAKRTAAKSASGSPPAKRATKPAARSVKPASAPQDTTTSTIPKRKTRAAAKSAAAKAPSARGHATKPRAPKDAQHEAATDPEDALDSVEELDAEPDLDVEPGEDLDLDAADLNLDDLEDDVAPDADDDLDSGDDEDHEDLEAEAAVAPGQTADDDEEIAEPTEKDKASGDFVWDEDESEALRQARKDAELTASADSVRAYLKQIGKVALLNAEEEVELAKRIEAGLYATQLMTELSERGEKLPAAQRRDMMWICRDGDRAKNHLLEANLRLVVSLAKRYTGRGMAFLDLIQEGNLGLIRAVEKFDYTKGYKFSTYATWWIRQAITRAMADQARTIRIPVHMVEVINKLGRIQRELLQDLGREPTPEELAKEMDITPEKVLEIQQYAREPISLDQTIGDEGDSQLGDFIEDSEAVVAVDAVSFTLLQDQLQSVLDTLSEREAGVVRLRFGLTDGQPRTLDEIGQVYGVTRERIRQIESKTMSKLRHPSRSQVLRDYLD

What all share (assay): cryo-EM structure
Assay [1] addresses T1, Mycobacterium tuberculosis RNA ….
The target in assay [2] is T2, Mycobacterium tuberculosis σ^A ….
Assay [3] has as its target B5.
The target of assay [4] is Mycobacterium tuberculosis RNA polymerase β’ subunit (M. tuberculosis, UniProt P9WGY7).

In the case of B1, the binding result in assay [1] is on record as “binds”.
As to B2, the binding result in assay [2] is reported as “binds”.
In the case of B3, the binding result in assay [3] was “binds”.
For the molecule B4, the binding result in assay [3] and in assay [4] was “binds” in each case.
For the molecule B5, the binding result in assay [4] and in assay [1] was “binds” in each case.
